Assay results taken from the DeepSol protein solubility set.

Experiment: soluble on expression in E. coli; label from the status in PepcDB or PDB records

Question: Which “soluble on expression in E. coli” value does the source give for “MTAGEVLSQSEIDALLAALSAGEMSAEELKKEEEGRRVKTYDFRRALRFSKDQIRSLTRIHENFARLLTTFFSAQLRTYVQISVASADQIPYEEFVRSIPKMTIINVFEVPPLGGHVLLEVNPNIAYAMLDRVMGGRGVGMDKVEHLTEIETRIMSNLFDKAFVHWRDAWESVAEVDPLFVDFEVNPQFLRMIAPNDTVVVISLNTQIGEARGMMNVCIPHVVLEPIMPRLSVHYWMQAQKKERSPEEAKRIEQRIRAAKLPIIAELGTAVITVNEFLQLEAGDVIQLEQSIHEPLVVKIGHIPKFIGQPGKRNKKLAVQILAMIEGDEDDHDE” here?
Answer: The value was “not soluble”.

Question: For “MTAKTLIVLIGPTGVGKTELSLRIAEYFKTSIISSDSRQLYAELKIGTAAPTPEQLKRVPHYFVGTLQLTDYYSAAQYETEVMSVLEQLFQQHHVVLLTGGSMMYVDAICKGIDDIPTVDAETRELLLHKYDTEGLDNLCAELKLLDPEYYKIVDLKNPKRVIHALEICYMTGKTYTSFRTQQKKERPFHILKIGLTRDRAELYDRINRRVDQMMDEGLLEEARSVYAHRELNSLNTVGYKEIFKYLDGEWDLDFAIEKIKQNSRIYSRKQMTWFKRDEEIRWFHPEQEKEILSYLQASIKLEHHHHHH”, which “soluble on expression in E. coli” value is on record?
Answer: The value was “soluble”.

Question: Which “soluble on expression in E. coli” value does the source give for “MTALKVGSESWWQSKHGPEWQRLNDEMFEVTFWWRDPQGSEEYSTIKRVWVYITGVTDHHQNSQPQSMQRIAGTDVWQWTTQLNANWRGSYCFIPTERDDIFSAPSPDRLELREGWRKLLPQAIADPLNPQSWKGGLGHAVSALEMPQAPLQPGWDCPQAPEIPAKEIIWKSERLKNSRRVWIFTTGDVTAEERPLAVLLDGEFWAQSMPVWPVLTSLTHRQQLPPAVYVLIDAIDTTHRAHELPCNADFWLAVQQELLPLVKVIAPFSDRADRTVVAGQSFGGLSALYAGLHWPERFGCVLSQSGSYWWPHRGGQQEGVLLEKLKAGEVSAEGLRIVLEAGIREPMIMRANQALYAQLHPIKESIFWRQVDGGHDALCWRGGLMQGLIDLWQPLFHDRS” here?
Answer: Its value is “soluble”.

Question: With “MTALSQLYPQPLWQWFEQICAIPHPSKHEQSLSQHIQAWAKQKQLDVVEDAVGNVIIRKAATPGMEDRKVVVIQAHIDMVPQKNADKVHDFIKDPIEAYVDGDWVKAKGTTLGADNGIGMASALAILGSDDIKHGPLEVLLTIDEEAGMTGAFGLQAGMLNAEILINTDSEQEGEIYMGCAGGVDAQITLPMVWQASEQSYASFSLHLSGLKGGHSGVNIHLGRGNANKILARFLFENADELALELTQFTGGSLRNAIPREANISFMLPAENIDALKEKVHAFEALMRAELAIADPDLRLVLSNIATPKRVMSENSQNTLIDLLHVCPNGVMRMSDEVTGVTETSLNVGVISTNDEEVGILCLIRSLIDSGRSQVEGMLNALTNLAGADVEFSGAYPGWKPDNTSPVMAIVRETYESIYHKEPVIMVIHAGLECGLFKKPYPEMDMVSIGPTIRYPHGPDEMVNITTVGQYWDLLVAVLERIPVKALEHHHHHH” as the sequence, how does the “soluble on expression in E. coli” value read?
Answer: The value was “not soluble”.

Question: With “MTAPLPLDWTFPYVSQRMPALGENMVCTEQPLANQAAMRMLAAGGNAVDAAIAAAITMTVVGPCMNGIGGDLFAIIWDGRQLHGLNASGRAPQAWTREYFSRHDAMPARGWDAVTVPGAVSGWVALSRKFGKLDFARLFEPALHYARHGFLVTPITARQWADQAEPIMQGPGFRDAFAPNGRTPQPGERFICPGQADTLQDIADTHGESFYRGALAARIAAFARETGGALTKADLAAHQADWVDPIGAQYGELTLHEIGPSGQGIGALMALGMLDGLSGKLGQPDSTDFYHYQIEAMKLAFADINRYVADPASMREVSAEMLLDRAYLATRAGAIDPAEARYPGPGKPHNGGTTYLTAADADGMMVSLIQSNFKGFGSGVVVPGTGIALHNRGWGFNLIEGHPNEVGPGKRPFHTIIPGFLMRDGEPLMSFGVMGGSLQAQGHVQVTVRTAAGQNPQAIVDAPRWRILEDNRTVMVEWNFPDAAVAGLRERGHAVTVAPRFSDEFGGSQAIMRIEGGYLGASDHRKDGQASALLEHHHHHH” as the sequence, how does the “soluble on expression in E. coli” value read?
Answer: The value was “not soluble”.

Question: With “MTAQTTHTVDAVVIGAGFGGIYAVHKLHHELGLTTVGFDKADGPGGTWYWNRYPGALSDTESHLYRFSFDRDLLQESTWKTTYITQPEILEYLEDVVDRFDLRRHFKFGTEVTSALYLDDENLWEVTTDHGEVYRAKYVVNAVGLLSAINFPNLPGLDTFEGETIHTAAWPEGKSLAGRRVGVIGTGSTGQQVITSLAPEVEHLTVFVRTPQYSVPVGNRPVNPEQIAEIKADYDRIWERAKNSAVAFGFEESTLPAMSVSEEERNRIFQEAWDHGGGFRFMFGTFGDIATDEAANEAAASFIRAKVAEIIEDPETARKLMPKGLFAKRPLCDSGYYEVYNRPNVEAVAIKENPIREVTAKGVVTEDGVLHELDVLVFATGFDAVDGNYRRIEIRGRDGLHINDHWDGQPTSYLGVSTANFPNWFMVLGPNGPFTNLPPSIETQVEWISDTIGYAERNGVRAIEPTPEAEAEWTETCTEIANATLFTKGDSWIFGANIPGKKPSVLFYLGGLRNYRAVMAEVAADGYRGFEVKSAEMVTV” as the sequence, how does the “soluble on expression in E. coli” value read?
Answer: The value was “soluble”.

Question: Which “soluble on expression in E. coli” value does the source give for “MTATETVRVRFCPSPTGTPHVGLVRTALFNWAYARHTGGTFVFRIEDTDAQRDSEESYLALLDALRWLGLDWDEGPEVGGPYGPYRQSQRAEIYRDVLARLLAAGEAYHAFSTPEEVEARHVAAGRNPKLGYDNFDRHLTDAQRAAYLAEGRQPVVRLRMPDDDLAWNDLVRGPVTFAAGSVPDFALTRASGDPLYTLVNPCDDALMKITHVLRGEDLLPSTPRQLALHQALIRIGVAERIPKFAHLPTVLGEGTKKLSKRDPQSNLFAHRDRGFIPEGLLNYLALLGWSIADDHDLFGLDEMVAAFDVADVNSSPARFDQKKADALNAEHIRMLDVGDFTVRLRDHLDTHGHHIALDEAAFAAAAELVQTRIVVLGDAWELLKFFNDDQYVIDPKAAAKELGPDGAAVLDAALAALTSVTDWTAPLIEAALKDALIEGLALKPRKAFSPIRVAATGTTVSPPLFESLELLGRDRSMQRLRAARQLVGHALEHHHHHH” here?
Answer: Its value is “soluble”.

Question: For “MTATNDKGLQQIATIIEQHQTLPGAMLPILHAIQNDLSFIPSNALPLIAKALNVSKAEVHGVISFYHHFRTEEPGAHVIEICRGESCQAMGSRALEENIKQNLSIDYHQTSKDRQYTLEPVYCLGNCACSPAMRIGDDIHGELDLQKFEQIIASLNTYSLELK”, which “soluble on expression in E. coli” value is on record?
Answer: The value was “not soluble”.

Question: With “MTCARCGYVREDLTLFDRVFVCPKCGWIVDRDYNASLNILRRSGSERPSVWSSAFYRWQGGAMKQEALSVRGGLEHHHHHH” as the sequence, how does the “soluble on expression in E. coli” value read?
Answer: Its value is “not soluble”.

Question: With “MTDDVDTHIHEKFDLQKRLGKGAYGIVWKAYDKRSRETVALKKIFDAFRNPTDSQRTFREVMFLQEFGKHPNVIKLYNIFRADNDRDIYLAFEFMEADLHNVIKKGSILKDVHKQYIMCQLFRAIRFLHSGNVLHRDLKPSNVLLDADCRVKLADFGLARSLSSLEDYPEGQKMPDLTEYVATRWYRSPEILLAAKRYTKGVDMWSLGCILAEMLIGRALFPGSSTINQIERIMNTIAKPSRADIASIGSHYAASVLEKMPQRPRKPLDLIITQSQTAAIDMVQRLLIFAPQKRLTVEQCLVHPYVVQFHNPSEEPVLNYEVYPPLPDHIQLSIDDYRDRLYEMIDEKKASFKRIQHEKIRPYGEDKSRAPIAQAECSDTDYDTARSLQRTTSMDKNNSSSHDSSSGTLRERAASAESRTSKDSNGEMRNGNGNTPSSIKQRRRSVERARLFANIKPSKILHPHKLISNY” as the sequence, how does the “soluble on expression in E. coli” value read?
Answer: Its value is “not soluble”.

Question: Which “soluble on expression in E. coli” value does the source give for “MTDFLEIRPLTKEAFTPFGDVIETTPSSMRHINGGQTERHHALSAPEAAGEGARIILNIFRGQPRVFPHKIDMMERHPLGSQSFSPLSGRPFLVVVAQDDGGRPARPQVFLARGDQGVNYRRNVWHYPLMPLQAVSDFLVADREGPGNNLEEYFFDEPFMIAEPSL” here?
Answer: Its value is “not soluble”.

Question: Which “soluble on expression in E. coli” value does the source give for “MTDIDAIIIGAGVIGLATARELSMHGLSVIILESETEFGSATSSRNSEVIHAGLYYPAGSLKARLCVEGRQRLYDFCESHGVAHRHCGKLIVATSDDETPLLVALGAKGKANGCDDLELIDQRHALSLEPALACSSALLSPSTGIIDSHGYMLALLGEAQDHGAALALNAPFERAEAIGDGFRVHVGGKEPVSLTCRLLVNSAGLVAPMVAAMIEGLPSVAIPQARFAKGSYFSLTGKSPFSRLIYPAPHTHGLGVHLTLDLAGQARFGPDVEWVDTIDYAVDPRRMEGFGDAIRRYWPGLPEHTLAPAYSGIRPKISGPDEPAMDFRIDGPETHGFPGLVNLFGIESPGLTASLAIAGEIAARLEALEHHHHHH” here?
Answer: Its value is “not soluble”.

Question: Which “soluble on expression in E. coli” value does the source give for “MTDKENFYSGFFLGRLPGSFDSRFLIKVACFQPGKEERNVFELTTDTKREEDYGEMVHFWVDKGPLQNKSFVRFEENYETFFIHENKMFDRIVHTDKDFYVGVNDLPDSDIYIHPDLGKMIDTRSIVTPGKKYNFITFEVKQNENNSFDIEIVGGEVQGKEKNSEEPSAKEKIIQKMEQVHEVMKVEYEYNKNEETANWDVIGHLKLIKFYDKDLTSGLRPVLRLMDNRHVALFKKQRETMPIKMIKVIEVDGIWKDDVNFVPQEGTLLPTDHDEKTVVLLGNDYRHKFERLFKREDVFRLESNNTLTHLKFWQYGLEKI” here?
Answer: Its value is “not soluble”.

Question: For “MTDNTLTPQMLTGLSTDHLVVLSGAHRLQPQAAEAFQAMQQAAKVAGFDLQPASTFRDFGRQLAIWNGKFRGERPVLDQDSQPIDIFSLDTAARCEAILRWSALPGTSRHHWGSDLDIYDPSRLPTGEKLQLEPWEYDAGGYFYPLTQWLSAHMAEFGFYRPFATDNGGVAVEPWHLSYRPLAEQAEHLLTPKILLAAWQSQDVAGSEWLASHLPMIFSRFIYLK”, which “soluble on expression in E. coli” value is on record?
Answer: Its value is “not soluble”.

Question: With “MTDTQYIGRFAPSPSGELHFGSLIAALGSYLQARARQGRWLVRIEDIDPPREVPGAAETILRQLEHYGLHWDGDVLWQSQRHDAYREALAWLHEQGLSYYCTCTRARIQSIGGIYDGHCRVLHHGPDNAAVRIRQQHPVTQFTDQLRGIIHADEKLAREDFIIHRRDGLFAYNLAVVVDDHFQGVTEIVRGADLIEPTVRQISLYQLFGWKVPDYIHLPLALNPQGAKLSKQNHAPALPKGDPRPVLIAALQFLGQQAEAHWQDFSVEQILQSAVKNWRLTAVPESAIVNSTFSNASC” as the sequence, how does the “soluble on expression in E. coli” value read?
Answer: The value was “soluble”.

Question: For “MTDVRHCPAVLIAAPASGQGKTTVTAALARLHRNRGRKVRVFKCGPDFLDPMILERASGAAVYQLDMWMVGEQESRRLLWEAAGEADLILIEGVMGLFDGTPSSADLARHFGVPVLGVIDGTAMAQTFGALALGLARYQPDLPFAGVLANRVGTLRHAQLLEGSLTEGLRWYGALSRETDIELPSRHLGLVQASELNDLDLRLDAAAEALASSCQVELPPAVSFAAPTPVACAPLLKGVRIAVARDEAFAFTYGASLDLLRAMGAQLSFFSPIHDTQLPDADSLYLPGGYPELHHQALARNSSMLQAIRAHHAAGKPLLAECGGMLYLLDSLTDVEGQRAELLGLLPGDAVMQKRLAALALQAVDLPEGSLRGHTYHHSLTSTELLPIARGLSPNGGRGAEAVYRQGRMTASYVHFYFPSNPAAVAALFAPGAPVEPVLAEGVAGELEHHHHHH”, which “soluble on expression in E. coli” value is on record?
Answer: Its value is “not soluble”.

Question: Which “soluble on expression in E. coli” value does the source give for “MTEDERFAWLQLAFTPYIGAESFLLLMRRFGSAQNALSAPAEQVAALIRHKQALEAWRNAEKRALARQAAEAALEWEMRDGCRLMLLQDEDFPEMLTQGLTAPPVLFLRGNVQLLHKPSAAIVGSRHATPQAMRIAKDFGKSLGGKGIPVVSGMASGIDTAAHQGALQAEGGTIAVWGTGIDRIYPPVNKNLAYEIAEKGLIVSEFPIGTRPYAGNFPRRNRLIAALSQVTLVVEAALESGSLITARLAAEMGREVMAVPGSIDNPHSKGCHKLIKDGAKLVECLDDILNECPGLLQNTGASSYSINKGIPEKRITAVQTASDQLSLPEGKMPSEKTENRPVGGSILDRMGFDPVHPDVLAGQLAMPAADLYAALLELELDGSVAAMPGGRYQRIRT” here?
Answer: The value was “not soluble”.
